From patent publication US20090029421, “Recombinase polymerase amplification” (published 2009)

Experiments:
Assay in all cases: competition; excess ssDNA oligo titrates gp32 off probe
Settings in all cases: tags: C-terminal His6
gp32 (Aeh1) = target: T1, gp32 (Aeh1) (Aeromonas phage Aeh1)
T1 chain: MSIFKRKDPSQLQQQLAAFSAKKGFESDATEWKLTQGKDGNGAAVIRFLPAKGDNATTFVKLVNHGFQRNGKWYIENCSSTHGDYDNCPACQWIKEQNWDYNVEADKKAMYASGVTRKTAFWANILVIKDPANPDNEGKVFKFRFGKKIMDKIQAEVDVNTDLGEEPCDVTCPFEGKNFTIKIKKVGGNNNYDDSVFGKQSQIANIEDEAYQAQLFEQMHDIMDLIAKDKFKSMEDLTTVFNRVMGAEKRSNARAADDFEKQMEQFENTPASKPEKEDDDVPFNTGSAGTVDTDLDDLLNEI
Protocol: (§1) In this experiment, the effects of these challenges on Rb69 gp32, T4 gp32 and Aeh1 gp32 were compared.
(§2) An experiment was performed to assess whether gp32 molecules from different species of origin were biochemically distinct from one another. Experimental conditions were as follows: reactions were performed in 50 ul volume; final concentration of probe (SA-Tamra2; 5′-tgttaattgagcaagtgtatagagcattraygabtatgcgtggag-3′ (SEQ ID NO:126), here y=thf, b=BHQ2-dT, r=TAMRA-dT, 3′=Bio-TEG) was 100 nM; Rb69 pg32 was used at final concentration of 80 ng/μl, Nfo was present at 33 ng/μl; after 350 sec either water, dsDNA (550 ng human genomic DNA; i.e. approximately 10× mass of oligonucleotide probe) or ssDNA ([…] oligonucleotide of sequence 5′[…]-3′ (SEQ ID NO:127)) was added; buffer conditions were 20 mM Tris-acetate, 50 mM potassium acetate (pH 7.9), 10 mM Magnesium Acetate, 1 mM Dithiothreitol. Measurements were made in a fluorometer manufactured by Embedded System Engineering (ESE, GmbH) with LED excitation of 520 nm and emission at 585 nm.
(§3) Initially, a concentration of gp32 was established which permitted only a very low cutting activity by Nfo nuclease on the fluorophore/quencher probe. At this concentration the availability of gp32 was limited to a minimal quantity for substantial probe protection, and under these conditions it was possible to assess very sensitively whether gp32 was partitioned away from the probe in competition experiments. After monitoring the slow probe cutting for a while, excess double-stranded DNA or single-stranded oligonucleotides were added to assess whether this affected the distribution of gp32 on the probe. […] Clearly Rb69 and Aeh1 gp32 molecules differentiated and partitioned much more effectively in favour of single-stranded DNA than T4 gp32.

gp32 (T4) = target: T2, gp32 (T4) (Enterobacteria phage T4, UniProt P03695 SEQ:1-301)
T2 sequence: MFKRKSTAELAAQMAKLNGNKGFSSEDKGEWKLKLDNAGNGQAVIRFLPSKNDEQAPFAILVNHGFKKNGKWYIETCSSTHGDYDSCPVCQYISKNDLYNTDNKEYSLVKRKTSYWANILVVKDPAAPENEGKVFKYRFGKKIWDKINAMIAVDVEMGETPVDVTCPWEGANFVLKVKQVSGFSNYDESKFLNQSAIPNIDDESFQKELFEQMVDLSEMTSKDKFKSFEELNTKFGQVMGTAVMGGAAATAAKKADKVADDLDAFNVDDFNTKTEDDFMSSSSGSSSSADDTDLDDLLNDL
Protocol: as §1, §2, §3

gp32 (Rb69) = target: T3, gp32 (Rb69) (Enterobacteria phage RB69)
T3 chain: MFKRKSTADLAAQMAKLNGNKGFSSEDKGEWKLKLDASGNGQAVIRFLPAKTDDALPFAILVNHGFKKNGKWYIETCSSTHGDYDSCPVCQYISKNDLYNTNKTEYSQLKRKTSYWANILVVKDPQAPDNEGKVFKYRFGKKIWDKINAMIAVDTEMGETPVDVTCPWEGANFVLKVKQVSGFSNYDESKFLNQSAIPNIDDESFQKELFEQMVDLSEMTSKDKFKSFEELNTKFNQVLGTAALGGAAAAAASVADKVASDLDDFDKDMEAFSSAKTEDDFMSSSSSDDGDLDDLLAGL
Protocol: as §1, §2, §3

Measured: binding result

CTGTATTAGAAGTACATGCTGATCAAGTGACA (ssDNA) [competitor oligonucleotide]
binds: all assays above
